Measured values from paper PMC7762956 (The Journal of Biological Chemistry, 2020).

Target: the molecule itself
Test: SEC

B1: murine Ifit1b with a C-terminal His8 tag (natural protein)
chain: MEQLLSPSNMSEESHKSHIHDSLDELRCHFTWELDIKDKHIHDLEIKISETEFRDPIYSIGMHNLLAYVRHLKGQQDEALQSLKEAEALIQSEQLSKRSLATWGNCAWLHYHRGSLAEAQVYLDKVEKVCKEFSSPFRYRLECAEMDCEEGWALRKCGSQNYTRAMACFERALKVEPENPEYNAGYADVAYHLDYYDGNSLQPLKKAVSVKPEDPYLKVLLALKLQDLRKTDEAEKHIKEATLTISSQNNIFGYVAKFYRRKGCVEEALGFLKKALETKPSSPYLHFQIGLCHKTQFFQMKKATSRENRKRADQSCHLAICHFKKTLELKPTYDRAYIDLAEVYAKNHQQKEAEDNFQEVLSMSNLGDYMQQEIHFRYGNFQQYYKKSEEAAITHYLKGLKIEVTSHYRDKLLKALEELAEGRKEDHVLESLSLLGLVCRLRGDTSEAMSCYEKALRLTGAVNPEF
stoichiometry N: 2

B2: murine Ifit1 with a C-terminal His8 tag (natural protein)
chain: MGENADGDQVMENLLQLRCHFTWKLLFENNDIPDLEVRISEQVQFLDIKNPLGMHNLLAYVRHLKGQQDEALQSLKEAEALIQSEQLSKRSLATWGNCAWLHYHRGSLAEAQIYLDKVEKVCKEFSSPFRYRLECAEMDCEEGWALLKCGGGNYKQAMACFAKALKVEPENPEYNTGYAVVAYRQDLDDNFISLEPLRKAVRLNPEDPYLKVLLALKLQDLGEHVEAEAHIEEALSSTSCQSYVIRYAAKYFRRKHRVDKALHLLNRALQASPSSGYLHYQKGLCYKQQISQLRTSRNRQPRRQDNVQELAQQAIHEFQETLKLRPTFEMAYVCMAEVQAEIHQYEEAERNFQKALNNKTLVAHIEQDIHLRYGRFLQFHKQSEDKAITLYLKGLKVEEKSFAWRKLLTALEKVAERRVCQNVHLVESTSLLGLVYKLKGQEKNALFYYEKALRLTGEMNPAF
stoichiometry N: 2
